The values below come from patent publication US20240327530A1 (ICHNOS SCIENCES, published 2024).

The test concerns the target T1, Mouse IL-1RAP, membrane-bound on NIH-3T3 cells (mouse, UniProt Q61730 21-570).
T1 construct: Endogenous protein on cells
T1 sequence (looked up): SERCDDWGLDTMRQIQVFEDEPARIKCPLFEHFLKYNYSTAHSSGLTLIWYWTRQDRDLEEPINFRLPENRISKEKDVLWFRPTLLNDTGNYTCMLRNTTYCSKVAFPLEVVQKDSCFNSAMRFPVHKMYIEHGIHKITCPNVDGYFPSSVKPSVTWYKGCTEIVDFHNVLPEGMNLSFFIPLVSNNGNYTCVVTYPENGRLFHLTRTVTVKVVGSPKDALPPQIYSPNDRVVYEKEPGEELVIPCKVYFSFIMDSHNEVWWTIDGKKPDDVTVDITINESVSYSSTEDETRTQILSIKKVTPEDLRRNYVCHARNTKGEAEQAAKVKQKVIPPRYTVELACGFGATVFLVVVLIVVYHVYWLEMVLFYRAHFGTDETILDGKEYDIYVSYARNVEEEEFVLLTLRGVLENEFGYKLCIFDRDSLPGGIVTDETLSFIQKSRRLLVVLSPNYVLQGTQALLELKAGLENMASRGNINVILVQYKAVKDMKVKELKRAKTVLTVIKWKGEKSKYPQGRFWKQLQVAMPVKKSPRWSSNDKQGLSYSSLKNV
Description: flow cytometry on NIH-3T3 cells, PE-Cyanine7 secondary antibody, relative mean fluorescence intensity (isotype subtracted); lower of two curves. The protocol: In brief, cells were harvested, counted, and plated at 50′000 cells/well in a 96-well round-bottom plate. The plate was centrifuged at 350 g for 3 minutes and the cells were resuspended in […] of FACS® buffer (PBS (1×)+2.5% FCS+2 mM EDTA+0.05% NaN₃) containing various concentrations (ranging from 20 to 0.0001 μg/ml) of either anti-mouse IL-1RAP_candidate_1 or Isotype control_2 antibodies. Stained cells were incubated for 30 minutes at 4° C., washed twice with FACS® buffer at 350 g for 3 min and resuspended in 100 μl of a monoclonal anti-mouse IgG PE-Cyanine7 secondary antibody (Biolegend, 407114) diluted 1/200 in FACS® buffer. Cells were then washed twice, and resuspended in 200 μl of FACS® buffer containing SYTOX® Green dead cell stain (THERMO FISHER […]®, S34860) and samples were acquired on a CYTOFLEX® instruments (Beckman Coulter). The cells were gated based on size on FSC vs SSC and analysed for PE-Cyanine7-geometric mean (geomean) fluorescence intensity using FLOWJO® software. Finally, relative geomean fluorescence intensity was calculated by subtracting fluorescence of anti-mouse IL-1RAP_candidate_1 per fluorescence of Isotype control_2. As depicted in FIG. 11, anti-mouse IL-1RAP_candidate_1 antibody recognizes membrane-bound IL-1RAP expressed on NIH-3T3 cell line. […] Each data point is a measurement for a given cell line. […]
(In flow cytometry, cells or beads pass a laser one at a time.)

B1: Anti-IL-1RAP-C3-A3 mmIgG2a LALA (antibody, V domains shown)
VH: EVQLLESGGGLVQPGGSLRLSCAASGFIFSHYGMSWVRQAPGKGLEWVSAISYDGEGTLYADSVKGRFTISRDNSKNTLYLQMNSLRAEDTAVYYCARFRYYTAFDYWGQGTLVTVSS
VL: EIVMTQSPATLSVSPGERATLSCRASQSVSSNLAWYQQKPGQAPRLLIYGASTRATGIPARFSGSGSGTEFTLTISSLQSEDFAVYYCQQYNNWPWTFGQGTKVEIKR
notes: also called anti-IL-1RAP-C3-A3 mouse IgG2a LALA
Usually EC50 (read off the curve) stands for the concentration that produces a half-maximal response. A high value points to weaker potency. Regarding B1, the “EC50 (read off the curve)” value was around 0.3 µg/mL.
